These results are taken from patent publication US20160340422A1 (BEIJING HANMI PHARMACEUTICAL, published 2016).

One assay concerns the target Human IL-17A (human, UniProt Q16552 24-155). Briefly: cell-based or functional assay.
The target of a further assay is T1, Mouse IL-17A (mouse, UniProt Q62386 26-158, limits assumed).
T1 construct: Bought recombinant protein; also called mice IL-17A
T1 sequence (looked up): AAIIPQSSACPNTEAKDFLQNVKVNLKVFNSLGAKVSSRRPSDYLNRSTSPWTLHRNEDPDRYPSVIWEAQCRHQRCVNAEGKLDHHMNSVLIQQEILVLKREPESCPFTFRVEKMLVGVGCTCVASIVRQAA
Description: ELISA, coated mouse IL-17A, HRP anti-mouse IgG.

Human IL-17A, sequence (Q16552 24-155 limits assumed): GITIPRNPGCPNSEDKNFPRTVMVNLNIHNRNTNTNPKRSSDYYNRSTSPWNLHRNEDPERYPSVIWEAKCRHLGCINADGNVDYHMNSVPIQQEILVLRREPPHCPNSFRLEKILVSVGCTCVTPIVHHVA
Description for Mouse IL-17A: The plated is blocked with PBST comprising 1% BSA, 300 μL/well, and incubated at 25° C. for at least 1 hour. The plate is washed with PBST for 5 times. Samples to be tested is added at a specific concentration, which are diluted in PBST comprising 1% BSA, 100 μL/well, and incubated at 25° C. for 1 hour. The plate is washed with PBST for 5 times. Then a horse radish peroxidase labeled anti-mouse IgG antibody (1:10,000, in PEST comprising 1% BSA) (Abeam, product No. Ab7068) is added, 100 U L/well, and incubated at 25° C. for 1 hour. The plate is washed with PBST for 5 times. […] 1M H₂SO₄is added with 100 μL/well to terminate the colorimetric development. The Absorbance at 450 nm is read on ELISA.

B1: Control antibody A (antibody, mouse IgG2a, kappa, V domains shown)
VH: QVQLKESGPGLVQPSQTLSLTCTVSGFSLTNYYVHWVRQPPGKGLEWMGGVWNDGDTSYNSVLRSRLSITRDTSKSQVLLKMSSLQTEDTATYYCAREGREGFVGYYVMDAWGPGASVTVSS
VL: DIQMTQSPSFLSASVGERVTLSCKASQNINKYLDWFQQKLGEAPKLLIYNADNLHTGIPSRFSGSGSFSDFILTISSLQPEDDATYFCLQRESWPYTFGAGTKLELKR
notes: Corresponds to the anti-IL-17A antibody moiety of bifunctional fusion proteins A and C; also called anti-IL-17A antibody (rat 1D10 variable region, mouse IgG2a constant region); anti-IL-17A mAb
For the molecule B1, the “IC50 for inhibiting GROα secretion from HT-29 cells induced by IL-17A” value with Human IL-17A worked out at 0.532 nM. Also, the binding result in the assay with Mouse IL-17A was “binds”.
